Results on 2 molecules are retold here after PMC8363725, “Mapping the biosynthetic pathway of a hybrid polyketide-nonribosomal peptide in a metazoan” (Nature Communications, 2021).

One data set deals with T1, PKAL-1 (Caenorhabditis elegans, UniProt O02171).
T1 construct: PKAL-1 from C. elegans cDNA library in pET16b-KH01, C-terminal His tag, expressed in E. coli BL21(DE3), Ni resin and Superdex 200
T1 sequence (O02171 1-497): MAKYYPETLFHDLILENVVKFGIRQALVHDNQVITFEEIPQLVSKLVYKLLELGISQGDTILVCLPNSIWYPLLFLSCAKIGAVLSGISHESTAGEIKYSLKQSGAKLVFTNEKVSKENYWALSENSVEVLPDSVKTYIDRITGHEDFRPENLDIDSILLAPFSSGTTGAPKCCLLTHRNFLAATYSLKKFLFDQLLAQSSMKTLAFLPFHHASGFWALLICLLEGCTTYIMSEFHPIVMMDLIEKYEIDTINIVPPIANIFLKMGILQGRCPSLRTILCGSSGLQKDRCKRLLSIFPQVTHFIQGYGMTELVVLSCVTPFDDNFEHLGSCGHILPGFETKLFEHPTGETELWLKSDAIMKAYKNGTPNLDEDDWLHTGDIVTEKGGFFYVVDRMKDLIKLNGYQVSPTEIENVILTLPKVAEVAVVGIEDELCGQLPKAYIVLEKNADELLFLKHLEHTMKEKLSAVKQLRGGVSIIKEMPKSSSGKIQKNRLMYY
Kind of data set: enzyme-coupled continuous spectrophotometric assay (NADH). In kind it is biochemical. The following applies: 4 mM ATP, 10 mM MgCl2, 100 mM hydroxylamine as acceptor, Tris pH 7.4, 22 °C; apparent.

Substrate in the data set “purified protein”: CCCCCCCCCCCCCCCC(=O)O
Put plainly: purified protein. The following applies: 4 mM ATP, 10 mM MgCl2, 100 mM hydroxylamine as acceptor, Tris pH 7.4, 22 °C, apparent.

Substrate in data set [1]: CCCCCCCCCC(=O)O
Kind of data set: enzyme-coupled continuous spectrophotometric assay (NADH). In kind it is biochemical, Caenorhabditis elegans. The following applies: 4 mM ATP, 10 mM MgCl2, 100 mM hydroxylamine as acceptor, Tris pH 7.4, 22 °C, apparent.

Substrate in data set [2]: CCCCCCCCCCCC(=O)O
Described as above. The note with it: 4 mM ATP, 10 mM MgCl2, 100 mM hydroxylamine as acceptor, Tris pH 7.4, 22 °C, apparent. In kind it is biochemical, Caenorhabditis elegans.

Substrate in data set [3]: CCCCCCCCCCCCCC(=O)O
The data set is described as above. The note with it: 4 mM ATP, 10 mM MgCl2, 100 mM hydroxylamine as acceptor, Tris pH 7.4, 22 °C, apparent. In kind it is biochemical, Caenorhabditis elegans.

The term Km denotes the substrate concentration at which the rate is half of its maximum. For `CCCCCCCC(=O)O` [C8], the Michaelis-Menten constant (Km) entry on PKAL-1 was “C12, which is in turn preferred over C10 and C8”.

B1: PKAL-1 (Caenorhabditis elegans) (protein)
chain: T1 sequence (O02171 1-497)
notes: PKAL-1 from C. elegans cDNA library in pET16b-KH01, C-terminal His tag, expressed in E. coli BL21(DE3), Ni resin and Superdex 200
Usually kcat stands for the maximal rate divided by the concentration of active sites. Regarding B1, the Km in “purified protein” worked out at 8.7 ± 0.4 µM; in data set [1] it was 411.0 ± 20.2 µM; in data set [2], 84.6 ± 17.5 µM; in data set [3], 21.8 ± 2.6 µM. The kcat in the data set “purified protein” came to 0.0127 ± 0.000484 s⁻¹; in data set [1], 0.0437 ± 0.00284 s⁻¹; in data set [2], 0.00943 ± 0.00211 s⁻¹; in data set [3], 0.03 ± 0.00223 s⁻¹.
